Data set [1] deals with T1, MUC1/CD(Y46F).
T1 sequence: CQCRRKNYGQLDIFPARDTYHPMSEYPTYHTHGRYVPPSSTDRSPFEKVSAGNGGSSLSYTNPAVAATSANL

Data set [2] has as its system T2, MUC1/CD (purified hexahistidine tagged MUC1 cytoplasmic domain), unphosphorylated.
T2 sequence: T1 sequence with F46Y

The test system of data set [3] is T3, MUC1/CD(S40A).
T3 sequence: T1 sequence with S40A, F46Y

In data set [4] the test system is T4, MUC1/CD(S44A).
T4 sequence: T1 sequence with S44A, F46Y

Data set [5] relates to T5, MUC1/CD(T41A).
T5 sequence: T1 sequence with T41A, F46Y

Data set [6] relates to T6, MUC1/CD (S40A/S44A).
T6 sequence: T1 sequence with S40A, S44A, F46Y

Positions count from the first letter of the chain named.

In the case of “purified c-Src polypeptide (Oncogene Research Products)”, the “phosphorylation of MUC1/CD(Y46F) ([γ-32P]ATP, autoradiography)” value in data set [1] is reported as “Incubation of MUC1/CD(Y46F) with c-Src demonstrated a decrease in phosphorylation as compared to that found with wild-type MUC1/CD”. For the same substance, in data set [2], the “phosphorylation of MUC1/CD ([γ-32P]ATP, SDS-PAGE, autoradiography)” value is “demonstrated c-Src-mediated phosphorylation of MUC1/CD”.

As to “purified recombinant PKCδ (PanVera / Calbiochem-Novabiochem)”, the “phosphorylation ([γ-32P]ATP, autoradiography)” value is reported as “phosphorylation of MUC1 by PKCδ was unaffected by S to A mutations of either or both of the flanking serines” in data set [3], “phosphorylation of MUC1 by PKCδ was unaffected by S to A mutations of either or both of the flanking serines” in data set [4], “PKCδ-mediated phosphorylation of MUC1/CD(T41A) was attenuated compared to that obtained with wild-type MUC1/CD” in data set [5] and “phosphorylation of MUC1 by PKCδ was unaffected by S to A mutations of either or both of the flanking serines” in data set [6]. For the same substance, the “phosphorylation of MUC1/CD ([γ-32P]ATP, SDS-PAGE, autoradiography)” value in data set [2] is “demonstrated phosphorylation of MUC1 CD”.

The values above are taken from patent US20040166543.
